{
  "source": "patent US20260184748A1",
  "about": "(University of Pennsylvania, published 2026)",
  "assay_in_all_cases": "cell-based or functional assay",
  "key": {"CHRM5": {"target": "T1, CHRM5 (UniProt P08912 1-532)", "T1 sequence (looked up)": "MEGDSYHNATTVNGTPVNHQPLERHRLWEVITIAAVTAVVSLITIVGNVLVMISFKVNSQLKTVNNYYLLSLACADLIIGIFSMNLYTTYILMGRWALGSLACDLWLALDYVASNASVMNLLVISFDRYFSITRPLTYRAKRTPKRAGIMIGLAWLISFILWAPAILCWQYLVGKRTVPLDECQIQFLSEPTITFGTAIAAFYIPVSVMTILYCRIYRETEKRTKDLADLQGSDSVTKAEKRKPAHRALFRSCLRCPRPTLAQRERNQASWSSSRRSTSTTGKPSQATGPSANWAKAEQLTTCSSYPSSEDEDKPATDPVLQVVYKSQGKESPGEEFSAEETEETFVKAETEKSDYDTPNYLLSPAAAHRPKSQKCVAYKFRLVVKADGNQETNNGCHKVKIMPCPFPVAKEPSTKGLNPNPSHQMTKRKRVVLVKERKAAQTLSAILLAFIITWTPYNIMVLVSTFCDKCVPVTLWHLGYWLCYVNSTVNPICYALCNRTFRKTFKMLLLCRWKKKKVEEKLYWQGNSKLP"}, "CCR1": {"target": "T2, CCR1 (UniProt P32246 1-355)", "T2 sequence (looked up)": "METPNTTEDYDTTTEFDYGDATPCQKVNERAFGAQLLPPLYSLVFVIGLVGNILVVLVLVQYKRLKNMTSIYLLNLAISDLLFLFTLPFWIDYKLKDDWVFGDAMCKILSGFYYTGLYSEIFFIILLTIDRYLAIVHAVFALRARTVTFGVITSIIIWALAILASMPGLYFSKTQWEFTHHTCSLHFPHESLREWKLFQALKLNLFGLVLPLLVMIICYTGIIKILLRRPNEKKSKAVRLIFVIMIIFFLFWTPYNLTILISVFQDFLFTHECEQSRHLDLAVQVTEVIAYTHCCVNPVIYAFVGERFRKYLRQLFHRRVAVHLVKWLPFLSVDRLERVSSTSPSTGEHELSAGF"}, "GPR109A": {"target": "GPR109A (UniProt Q8TDS4 1-363)", "sequence (Q8TDS4 whole entry)": "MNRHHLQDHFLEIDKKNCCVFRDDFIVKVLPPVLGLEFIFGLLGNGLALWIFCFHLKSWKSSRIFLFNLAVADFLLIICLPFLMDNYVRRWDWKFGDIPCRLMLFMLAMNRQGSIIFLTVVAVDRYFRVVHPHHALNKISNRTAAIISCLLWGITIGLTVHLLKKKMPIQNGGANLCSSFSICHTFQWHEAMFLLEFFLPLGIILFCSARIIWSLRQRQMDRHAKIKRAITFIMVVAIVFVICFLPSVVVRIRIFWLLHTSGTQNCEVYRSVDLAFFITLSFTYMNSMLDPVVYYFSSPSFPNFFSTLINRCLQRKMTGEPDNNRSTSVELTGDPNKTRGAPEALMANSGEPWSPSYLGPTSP"}, "GPR120": {"target": "T3, GPR120 (UniProt Q5NUL3 1-361, limits assumed)", "T3 sequence (looked up)": "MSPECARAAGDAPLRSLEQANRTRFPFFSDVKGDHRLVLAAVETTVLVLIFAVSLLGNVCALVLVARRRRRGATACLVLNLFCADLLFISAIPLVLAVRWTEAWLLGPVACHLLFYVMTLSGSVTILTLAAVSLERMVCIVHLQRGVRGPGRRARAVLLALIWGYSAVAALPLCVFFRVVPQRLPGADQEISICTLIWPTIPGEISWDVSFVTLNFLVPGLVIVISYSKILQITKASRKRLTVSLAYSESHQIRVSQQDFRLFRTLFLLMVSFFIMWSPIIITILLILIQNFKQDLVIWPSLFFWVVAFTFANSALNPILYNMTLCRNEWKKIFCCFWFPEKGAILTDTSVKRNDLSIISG"}, "ADORA3": {"target": "T4, ADORA3 (UniProt P0DMS8 1-318)", "T4 sequence (looked up)": "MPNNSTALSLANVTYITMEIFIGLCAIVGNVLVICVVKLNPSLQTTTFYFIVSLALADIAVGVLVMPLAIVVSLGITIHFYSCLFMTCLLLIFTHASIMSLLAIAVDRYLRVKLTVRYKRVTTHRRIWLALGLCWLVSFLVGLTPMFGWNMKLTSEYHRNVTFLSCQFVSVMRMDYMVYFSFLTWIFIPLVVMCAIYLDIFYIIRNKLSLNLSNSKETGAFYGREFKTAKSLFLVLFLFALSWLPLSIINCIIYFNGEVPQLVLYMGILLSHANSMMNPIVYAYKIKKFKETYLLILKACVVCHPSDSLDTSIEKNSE"}, "P2RY12": {"target": "P2RY12 (UniProt Q9H244 1-342)", "sequence (Q9H244 whole entry, one chain of several)": "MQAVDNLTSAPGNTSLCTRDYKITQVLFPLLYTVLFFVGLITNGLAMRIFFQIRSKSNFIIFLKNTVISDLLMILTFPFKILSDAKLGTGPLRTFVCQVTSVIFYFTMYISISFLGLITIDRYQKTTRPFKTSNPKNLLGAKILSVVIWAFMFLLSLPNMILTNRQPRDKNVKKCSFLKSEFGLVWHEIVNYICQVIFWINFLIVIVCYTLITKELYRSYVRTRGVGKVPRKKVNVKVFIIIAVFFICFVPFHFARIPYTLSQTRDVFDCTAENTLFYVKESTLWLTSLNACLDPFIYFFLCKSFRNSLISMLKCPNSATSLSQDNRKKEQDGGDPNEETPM"}, "HTR2A": {"target": "HTR2A (UniProt P28223 1-471)", "sequence (P28223 whole entry)": "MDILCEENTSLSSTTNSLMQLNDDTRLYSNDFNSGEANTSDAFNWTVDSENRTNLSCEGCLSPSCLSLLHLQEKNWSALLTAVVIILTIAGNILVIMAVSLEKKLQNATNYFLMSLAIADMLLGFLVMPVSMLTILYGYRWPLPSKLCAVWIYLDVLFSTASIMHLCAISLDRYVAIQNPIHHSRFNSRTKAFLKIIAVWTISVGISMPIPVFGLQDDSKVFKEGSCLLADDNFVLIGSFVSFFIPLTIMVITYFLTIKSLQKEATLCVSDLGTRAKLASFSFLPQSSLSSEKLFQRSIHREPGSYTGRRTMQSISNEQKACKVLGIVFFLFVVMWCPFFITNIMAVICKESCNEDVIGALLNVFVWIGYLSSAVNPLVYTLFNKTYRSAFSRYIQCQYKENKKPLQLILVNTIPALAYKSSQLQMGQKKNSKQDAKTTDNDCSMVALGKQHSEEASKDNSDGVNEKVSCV"}, "CHRM2": {"target": "T5, CHRM2 (UniProt P08172 1-466)", "T5 sequence (looked up)": "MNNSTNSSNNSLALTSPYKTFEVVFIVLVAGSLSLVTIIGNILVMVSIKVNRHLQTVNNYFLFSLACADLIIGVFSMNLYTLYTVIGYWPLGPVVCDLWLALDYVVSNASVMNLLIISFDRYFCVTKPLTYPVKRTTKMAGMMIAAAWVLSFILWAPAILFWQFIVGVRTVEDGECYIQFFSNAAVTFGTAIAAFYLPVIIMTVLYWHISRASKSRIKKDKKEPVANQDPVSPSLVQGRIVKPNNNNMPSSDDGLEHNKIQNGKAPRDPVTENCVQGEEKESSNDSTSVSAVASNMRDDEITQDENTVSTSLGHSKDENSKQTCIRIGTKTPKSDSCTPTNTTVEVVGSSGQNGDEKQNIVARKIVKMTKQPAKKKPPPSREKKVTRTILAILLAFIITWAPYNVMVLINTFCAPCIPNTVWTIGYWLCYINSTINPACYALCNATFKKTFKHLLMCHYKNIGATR"}, "EDG3": {"target": "EDG3 (UniProt Q99500 1-378)", "sequence (Q99500 whole entry)": "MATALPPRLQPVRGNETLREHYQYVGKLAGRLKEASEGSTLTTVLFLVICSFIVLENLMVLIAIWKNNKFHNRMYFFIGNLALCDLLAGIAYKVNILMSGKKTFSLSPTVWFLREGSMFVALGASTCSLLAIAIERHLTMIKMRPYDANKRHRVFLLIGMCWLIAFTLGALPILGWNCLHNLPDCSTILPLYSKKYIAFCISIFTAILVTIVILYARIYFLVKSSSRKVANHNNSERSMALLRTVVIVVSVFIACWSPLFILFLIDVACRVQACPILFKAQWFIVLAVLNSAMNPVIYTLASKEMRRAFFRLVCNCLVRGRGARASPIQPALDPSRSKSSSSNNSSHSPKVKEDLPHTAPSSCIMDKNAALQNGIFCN"}, "DRD4": {"target": "T6, DRD4 (UniProt P21917 1-419, limits assumed)", "T6 sequence (looked up)": "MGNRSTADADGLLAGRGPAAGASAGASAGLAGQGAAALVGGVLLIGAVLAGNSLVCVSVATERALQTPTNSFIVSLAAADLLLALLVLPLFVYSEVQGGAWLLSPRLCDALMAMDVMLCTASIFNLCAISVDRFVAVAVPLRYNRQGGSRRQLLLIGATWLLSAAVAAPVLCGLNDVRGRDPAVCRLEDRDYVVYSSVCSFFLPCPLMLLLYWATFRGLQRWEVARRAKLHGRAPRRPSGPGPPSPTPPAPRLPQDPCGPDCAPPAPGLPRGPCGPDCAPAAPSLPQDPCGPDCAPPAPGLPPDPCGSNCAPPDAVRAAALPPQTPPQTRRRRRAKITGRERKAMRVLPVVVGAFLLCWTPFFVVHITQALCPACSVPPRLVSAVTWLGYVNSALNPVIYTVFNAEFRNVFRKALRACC"}, "HTR5A": {"target": "HTR5A (UniProt P47898 1-357)", "sequence (P47898 whole entry)": "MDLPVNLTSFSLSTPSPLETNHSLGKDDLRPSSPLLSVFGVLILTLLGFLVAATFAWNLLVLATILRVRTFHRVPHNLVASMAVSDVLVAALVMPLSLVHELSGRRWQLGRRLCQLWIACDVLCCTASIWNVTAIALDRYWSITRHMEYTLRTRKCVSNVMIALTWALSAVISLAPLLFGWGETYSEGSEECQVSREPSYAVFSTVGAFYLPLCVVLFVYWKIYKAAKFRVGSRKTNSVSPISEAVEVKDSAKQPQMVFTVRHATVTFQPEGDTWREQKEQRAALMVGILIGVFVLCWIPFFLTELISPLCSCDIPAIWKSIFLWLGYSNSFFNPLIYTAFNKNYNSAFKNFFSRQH"}, "CCR8": {"target": "CCR8 (UniProt P51685 1-355)"}},
  "note": "Where no end group is shown, it is not given here.",
  "data": [
    {"binder": "QATVGDVNTDRPGLLDLK (also: synthesised on Rink amide resin, C-terminal amide not given here outright)", "note": "[octadecaneuropeptide (ODN)]", "values": [
      {"measurement": "% Activity, arrestin, antagonist mode, 2.5 uM", "setting": "CHRM5", "value": -1.5, "unit": "%"},
      {"measurement": "% Activity, arrestin, antagonist mode, 2.5 uM", "setting": "CCR1", "value": -5.4, "unit": "%"},
      {"measurement": "% Activity, arrestin, antagonist mode, 2.5 uM", "setting": "GPR109A", "value": -16, "unit": "%"},
      {"measurement": "% Activity, arrestin, antagonist mode, 2.5 uM", "setting": "GPR120", "value": 22.7, "unit": "%"},
      {"measurement": "% Activity, arrestin, antagonist mode, 2.5 uM", "setting": "ADORA3", "value": 0.5, "unit": "%"},
      {"measurement": "% Activity, arrestin, antagonist mode, 2.5 uM", "setting": "P2RY12", "value": -11, "unit": "%"},
      {"measurement": "% Activity, arrestin, antagonist mode, 2.5 uM", "setting": "HTR2A", "value": -9.7, "unit": "%"},
      {"measurement": "% Activity, arrestin, antagonist mode, 2.5 uM", "setting": "CHRM2", "value": 3.3, "unit": "%"},
      {"measurement": "% Activity, arrestin, antagonist mode, 2.5 uM", "setting": "EDG3", "value": 15.4, "unit": "%"},
      {"measurement": "% Activity, arrestin, antagonist mode, 2.5 uM", "setting": "DRD4", "value": 2.5, "unit": "%"},
      {"measurement": "% Activity, arrestin, antagonist mode, 2.5 uM", "setting": "HTR5A", "value": -0.3, "unit": "%"},
      {"measurement": "% Activity, arrestin, antagonist mode, 2.5 uM", "setting": "CCR8", "value": -17, "unit": "%"}
    ]}
  ]
}
